Numbering of substitutions follows the chain as printed. Each block holds one molecule with its values, some of them ahead of it.
How the values were obtained:
[1] = system: Hev b 6-specific mAb 1A5.4; test: Inhibition ELISA: mAb 1A5.4 binding to rHev b 6; parameters: species or system mouse; details: FIG. 8A
Experimental: Inhibition ELISA were carried out to confirm the lack of IgE reactivity of mutant rHev b 6. Various concentrations of mutant rHev b 6 and rHev b 6, ranging from 0.0016 μg/ml to 125 μg/ml were preincubated with patient sera before the sera were used in ELISA to measure IgE binding to rHev b 6. Incubation of sera with KLH was used as a negative control. Values are presented as percent inhibition±standard deviation. (A) The Hev b 6-specific mAb 1A5.4 was incubated with KLH, mutant rHev b 6 and rHev b 6 and mAb binding to rHev b 6 detected. Sera from three latex-allergic, Hev b 6 sensitised subjects A7 (B), A6 (C) and A8 (D) were incubated with KLH, mutant rHev b 6 and rHev b 6 and IgE binding to rHev b 6 detected. The horizontal line indicates the level below which inhibition was considered to non-specific.
In order to confirm the ability of the mutant rHev b 6 to inhibit Ab binding, rHev b 6 and mutant rHev b 6 were used to inhibit binding of the Hev b 6-specific mAb 1A5.4 to rHev b 6 (FIG. 8A).

[2] = system: Hev b 6-specific mAb 1A5.4; test: Western blotting of rHev b 6 forms with Hev b 6-specific mAb (Example 8); format: binding, mouse
Experimental: FIG. 6 is an image of sulphonation abolishing the IgE reactivity of rHev b 6. rHev b 6 (A) and sulphonated rHev b 6 (B) were resolved by 16% SDS-PAGE under non-reducing conditions. Gels were either stained with Coomassie Brilliant Blue (1) or transferred to nitrocellulose. Strips with transferred protein were incubated with the Hev b 6-specific mAb 1A5.4 and binding detected (2). Strips with transferred protein were also incubated with sera from two latex allergic, Hev b 6 sensitized subjects (3 and 4) and one non-latex-allergic, atopic subject (5). The presence or absence of IgE binding was then detected. […] Plates were coated with rHev b 6 and sulphonated rHev b 6 and the presence or absence of IgE-binding detected. As a positive control the Hev b 6-specific mAb 1A5 was used. NB indicates no binding of IgE was detected.
Four μg of rHev b 6 or sulphonated rHev b 6 were separated on 16% sodium dodecyl sulphate (SDS) polyacrylamide gels with 4% stacking gel. Electrophoresis was performed at 125V for 2 h on a Novex Xcell II Mini-Cell system (Novex, CA, USA). Proteins were visualized with Coomassie Brilliant Blue R-250 (Sigma). The separated proteins were electrophoretically transferred to nitro-cellulose membranes (BA 0.45μ, Schleicher and Schuell, Dassel, Germany) at 25V for 1 hr in transfer buffer. Membranes were blocked for 1 h at RT in 10% skim milk powder (SMP) in PBS, washed once in 0.05% Tween20/PBS and twice in PBS. Washed membranes were incubated for 1 hour at RT with either culture supernatant containing the Hev b 6-specific mAb 1A5.4, diluted 1 in 100 in 1% SMP/PBS or human serum, diluted 1 in 5 in 1% SMP/PBS. For mAb detection membranes were washed as above and incubated for 1 h at RT with goat HRP-conjugated anti-mouse Ig (Silenus), diluted 1 in 2000 in 1% SMP/PBS. For IgE detection, membranes were incubated for 1 h at RT with rabbit anti-human IgE (Dako, Denmark) at 1 in 1000 dilution, followed by swine anti-rabbit IgG-HRP conjugate (Promega) at 1 in 1000 dilution. After washing, the binding of 1A5.4 mAb and patient serum IgE to rHev b 6 was detected using hydrogen peroxide/diaminobenzidine solution.

[3] = Immunisation of mice with rHev b 6, serum ELISA; format: in vivo, BALB/c mice; details: eight mice; 20 μg intraperitoneally
Experimental: Monoclonal antibody production followed established protocols (Sutherland et al, 2002, supr; Goding, J. Monoclonal Antibodies: principles and practice 3rd ed. London: Academic Press. 492, 1996). Approval was obtained from the Monash University Animal Ethics Committee. Eight BALB/c mice were immunised with 20 μg rHev b 6 in 100 ill of PBS, intraperitoneally, three times at three weekly intervals. The first injection was given with Complete Freund's Adjuvant (100 μl; Sigma) and the two subsequent injections with Incomplete Freund's Adjuvant (100 μl; Sigma). Mice were finally boosted with 20 μg rHev b 6 in 200 μl PBS intraperitoneally 3 days before being sacrificed. Hybridomas were generated by fusing immune mouse spleen cells with murine myeloma cells (line X-63.Ag8.653; 17) and supernatants were screened for antibody to rHev b 6 and glove extract by performing a duplicate ELISA as described below. Positive hybridomas were expanded and cloned by limiting dilution.

[4] = system: rHev b 6-specific serum IgE; test: Immunoblotting detecting rHev b 6-specific serum IgE (Example 3); format: binding, human; details: sera from patients 1, 4 and 5; prohevein band around 20 kDa
Experimental: FIG. 4 is an image of immunoblotting detecting rHev b 6-specific serum IgE. rHev b 6 was subjected to electrophoresis under reducing conditions on a 16% SDS PAGE minigel and transferred to a nitrocellulose membrane. After blocking with skim milk powder, the membrane was incubated with serum from latex allergic and non-allergic subjects (1:5 dilution). Antibody binding was detected by incubation with rabbit anti-human IgE, swine anti-rabbit immunoglobulins-HRP and 4-chloro-1-naphthol as substrate. M: molecular mass markers; C: Coomassie-stained gel; lane 1: 1A5.4.3 monoclonal antibody; lane 2: P1 serum; lane 3: P4 serum; lane 4: P5 serum; lane 5: non-latex-allergic serum; lane 6: no serum.
Hybridoma supernatants and patient sera were tested for reactivity with LAL, NAL, glove extract, rHev b 6 and hevein by 16% SDS-PAGE and immunoblotting as described previously (Sutherland et al., 2002, supra).

latex-specific serum IgE = test: ELISA detecting latex-specific serum IgE (Example 3); format: binding, human; details: ten latex-allergic patients; serum 1:10
Experimental: FIG. 3 is a graphical representation of an ELISA detecting latex-specific serum IgE. ELISA plates were coated with 10 μg/ml rHev b 6 and glove extract, blocked with skim milk powder and incubated with patient (P1-10) and non-allergic control serum (NA1-6) diluted 1:10. Antibody binding was detected by incubation with rabbit anti-human IgE, swine anti-rabbit immunoglobulines-HRP and o-phenylenediamine as substrate. Mean values+SD for triplicate wells are shown. The cut-off for positive was 2 SD above the mean OD of non-allergic subjects for rHev b 6 (dotted line) and glove extract (black line).
Hybridoma supernatants were tested for reactivity to rHev b 6, glove extract and Hev b 6 peptides by ELISA using an established protocol (Sutherland et al., 2002, supra). Patient serum samples were tested for latex-specific IgE using a similar ELISA protocol with rabbit anti-human IgE (1/1000) and swine anti-rabbit immunoglobulins-horseradish peroxidase conjugate (1/1000). Monoclonal antibody isotypes were determined using a mouse immunoglobulin isotyping ELISA kit (BD Biosciences, San Diego, Calif., USA).

[5] = reducing SDS-PAGE (data not shown)

inhibition of mAb 1A5.4 binding to rHev b 6 [1]: comparable inhibition
number of latex-allergic patients with serum IgE binding by ELISA (latex-specific serum IgE): eight
B1: rHev b 6: recombinant Hev b 6 (prohevein) expressed in E. coli from pPROEX-HTa with 6-His tag (protein)
chain: EQCGRQAGGKLCPNNLCCSQWGWCGSTDEYCSPDHNCQSNCKDSGEGVGGGSASNVLATYHLYNSQDHGWDLNAASAYCSTWDANKPYSWRSKYGWTAFCGPVGAHGQSSCGKCLSVTNTGTGAKTTVRIVDQCSNGGLDLDVNVFRQLDTDGKGYERGHITVNYQFVDCGDSFNPLFSVMKSSVIN
modifications: left off: small tags and cut ends
notes: recombinant Hev b 6 (prohevein) expressed in E. coli from pPROEX-HTa with 6-His tag
Hev b 6-specific mAb reactivity in Western blotting ([2]; non-reducing SDS-PAGE): reactive
Hev b 6-specific mAb reactivity in Western blotting [2, 5]: reactive
number of immunised mice whose serum reacted with glove extract by ELISA [3]: seven
number of immunised mice with strong polyclonal immune response to rHev b 6 [3]: eight
serum IgE reactivity by Western blotting [4]: all showed reactivity

B2: sulphonated rHev b 6: purified rHev b 6 sulphonated in sulphonation buffer to improve solubility (protein)
chain: B1 chain
modifications: left off: small tags and cut ends
Hev b 6-specific mAb reactivity in Western blotting ([2]; non-reducing SDS-PAGE): reactive
Hev b 6-specific mAb reactivity in Western blotting [2, 5]: reactive

inhibition of mAb 1A5.4 binding to rHev b 6 [1]: comparable inhibition
B3: mutant rHev b 6: rHev b 6 with cysteine to alanine substitution at amino acid 3 of the mature protein (protein)
chain: B1 chain with C3A
modifications: left off: small tags and cut ends
notes: rHev b 6 with cysteine to alanine substitution at amino acid 3 of the mature protein

— US20060233785A1, “Immunointeractive molecules and uses thereof” (priority 2001, published 2006)
